B1: r16_88_TrROS_Hall (parent)
chain: EVIELKIKFKTPEQREKLKEIAKKLNAEVVEEKDGEVIIRFKTPEQAERALKEAEKLGAEVEL

Variants of: B1
Assay: folding stability dG (cDNA display proteolysis); higher = more stable
Conditions: PBS, room temperature

Row | Variant | folding stability dG [kcal/mol]
1 | EVIELKIKFKTPEQREKLKEIAKKLNAEVVEEKDGAVIIRFKTPEQAERALKEAEKLGAEVEL [E36A] | 4.59
2 | EVIELKIKFKTPEQREKLKEIAKKLNAEVVEEKDGCVIIRFKTPEQAERALKEAEKLGAEVEL [E36C] | 4.39
3 | EVIELKIKFKTPEQREKLKEIAKKLNAEVVEAKDGEVIIRFKTPEQAERALKEAEKLGAEVEL [E32A] | 4.34
4 | EVIELKIKFKTPEQREKLKEIAKKLNAEVVENKDGEVIIRFKTPEQAERALKEAEKLGAEVEL [E32N] | 4.43
5 | EVIELKIKFKTPEQREKLKEIAKKLNAEVVEVKDGEVIIRFKTPEQAERALKEAEKLGAEVEL [E32V] | 4.54
6 | EVIELKIKFKTPEQREKLKEIAKKLNAEVVEHKDGEVIIRFKTPEQAERALKEAEKLGAEVEL [E32H] | 4.49
7 | EVIELKIKFKTPEQREKLKEIAKKLNAEVVEFKDGEVIIRFKTPEQAERALKEAEKLGAEVEL [E32F] | 4.57
8 | EVIELKIKFKTPEQREKLKEIAKKLNAEVVESKDGEVIIRFKTPEQAERALKEAEKLGAEVEL [E32S] | 4.48
9 | EVIELKIKFKTPEQREKLKEIAKKLNAEVVERKDGEVIIRFKTPEQAERALKEAEKLGAEVEL [E32R] | 4.3
10 | EVIELKIKFKTPEQREKLKEIAKKLNAEVVELKDGEVIIRFKTPEQAERALKEAEKLGAEVEL [E32L] | 4.31
11 | EVIELKIKFKTPEQREKLKEIAKKLNAEVVEDKDGEVIIRFKTPEQAERALKEAEKLGAEVEL [E32D] | 4.39
12 | EVIELKIKFKTPEQREKLKEIAKKLNAEVVEQKDGEVIIRFKTPEQAERALKEAEKLGAEVEL [E32Q] | 4.62
13 | EVIELKIKFKTPEQREKLKEIAKKLNAEVVETKDGEVIIRFKTPEQAERALKEAEKLGAEVEL [E32T] | 4.52
14 | EVIELKIKFKTPEQREKLKEIAKKLNAEVVEIKDGEVIIRFKTPEQAERALKEAEKLGAEVEL [E32I] | 4.39
15 | EVIELKIKFKTPEQREKLKEIAKKLNAEVVECKDGEVIIRFKTPEQAERALKEAEKLGAEVEL [E32C] | 4.53
16 | EVIELKIKFKTPEQREKLKEIAKKLNAEVVEGKDGEVIIRFKTPEQAERALKEAEKLGAEVEL [E32G] | 4.46
17 | EVIELKIKFKTPEQREKLKEIAKKLNAEVVEYKDGEVIIRFKTPEQAERALKEAEKLGAEVEL [E32Y] | 4.65
18 | EVIELKIKFKTPEQREKLKEIAKKLNAEVVEMKDGEVIIRFKTPEQAERALKEAEKLGAEVEL [E32M] | 4.33
19 | EVIELKIKFKTPEQREKLKEIAKKLNAEVVEPKDGEVIIRFKTPEQAERALKEAEKLGAEVEL [E32P] | 4.54
20 | EVIELKIKFKTPEQREKLKEIAKKLNAEVVEWKDGEVIIRFKTPEQAERALKEAEKLGAEVEL [E32W] | 4.34
21 | EVIELKIKFKTPEQREKLKEIAKKLNAEVVEKKDGEVIIRFKTPEQAERALKEAEKLGAEVEL [E32K] | 4.45
22 | EVIELKIKFKTPEQREKLKEIAKKLNAEVVEEKRGEVIIRFKTPEQAERALKEAEKLGAEVEL [D34R] | 4.23

Row | Variant | folding stability dG [kcal/mol]
23 | EVIELKIKFKTPEQREKLKEIAKKLNAEVVEEKLGEVIIRFKTPEQAERALKEAEKLGAEVEL [D34L] | 4.3
24 | EVIELKIKFKTPEQREKLKEIAKKLNAEVVEEKNGEVIIRFKTPEQAERALKEAEKLGAEVEL [D34N] | 4.3
25 | EVIELKIKFKTPEQREKLKEIAKKLNAEVVEEKKGEVIIRFKTPEQAERALKEAEKLGAEVEL [D34K] | 4.19
26 | EVIELKIKFKTPEQREKLKEIAKKLNAEVVEEKCGEVIIRFKTPEQAERALKEAEKLGAEVEL [D34C] | 4.42
27 | EVIELKIKFKTPEQREKLKEIAKKLNAEVVEEKYGEVIIRFKTPEQAERALKEAEKLGAEVEL [D34Y] | 4.29
28 | EVIELKIKFKTPEQREKLKEIAKKLNAEVVEEKQGEVIIRFKTPEQAERALKEAEKLGAEVEL [D34Q] | 4.35
29 | EVIELKIKFKTPEQREKLKEIAKKLNAEVVEEKFGEVIIRFKTPEQAERALKEAEKLGAEVEL [D34F] | 4.34
30 | EVIELKIKFKTPEQREKLKEIAKKLNAEVVEEKVGEVIIRFKTPEQAERALKEAEKLGAEVEL [D34V] | 4.4
31 | EVIELKIKFKTPEQREKLKEIAKKLNAEVVEEKHGEVIIRFKTPEQAERALKEAEKLGAEVEL [D34H] | 4.52
32 | EVIELKIKFKTPEQREKLKEIAKKLNAEVVEEKEGEVIIRFKTPEQAERALKEAEKLGAEVEL [D34E] | 4.44
33 | EVIELKIKFKTPEQREKLKEIAKKLNAEVVEEKIGEVIIRFKTPEQAERALKEAEKLGAEVEL [D34I] | 4.5
34 | EVIELKIKFKTPEQREKLKEIAKKLNAEVVEEKAGEVIIRFKTPEQAERALKEAEKLGAEVEL [D34A] | 4.32
35 | EVIELKIKFKTPEQREKLKEIAKKLNAEVVEEKGGEVIIRFKTPEQAERALKEAEKLGAEVEL [D34G] | 4.46
36 | EVIELKIKFKTPEQREKLKEIAKKLNAEVVEEKMGEVIIRFKTPEQAERALKEAEKLGAEVEL [D34M] | 4.5
37 | EVIELKIKFKTPEQREKLKEIAKKLNAEVVEEKPGEVIIRFKTPEQAERALKEAEKLGAEVEL [D34P] | 4.26
38 | EVIELKIKFKTPEQREKLKEIAKKLNAEVVEEKWGEVIIRFKTPEQAERALKEAEKLGAEVEL [D34W] | 4.32
39 | EVIELKIKFKTPEQREKLKEIAKKLNAEVVEEKTGEVIIRFKTPEQAERALKEAEKLGAEVEL [D34T] | 4.49
40 | EVIELKIKFKTPEQREKLKEIAKKLNAEVVEEKSGEVIIRFKTPEQAERALKEAEKLGAEVEL [D34S] | 4.25
41 | EVIELKIKFKTPEQREKLKEIAKKLNAEVVREKDGEVIIRFKTPEQAERALKEAEKLGAEVEL [E31R] | 4.35
42 | EVIELKIKFKTPEQREKLKEIAKKLNAEVVYEKDGEVIIRFKTPEQAERALKEAEKLGAEVEL [E31Y] | 4.46
43 | EVIELKIKFKTPEQREKLKEIAKKLNAEVVVEKDGEVIIRFKTPEQAERALKEAEKLGAEVEL [E31V] | 4.37
44 | EVIELKIKFKTPEQREKLKEIAKKLNAEVVSEKDGEVIIRFKTPEQAERALKEAEKLGAEVEL [E31S] | 4.6

Row | Variant | folding stability dG [kcal/mol]
45 | EVIELKIKFKTPEQREKLKEIAKKLNAEVVWEKDGEVIIRFKTPEQAERALKEAEKLGAEVEL [E31W] | 4.68
46 | EVIELKIKFKTPEQREKLKEIAKKLNAEVVQEKDGEVIIRFKTPEQAERALKEAEKLGAEVEL [E31Q] | 4.57
47 | EVIELKIKFKTPEQREKLKEIAKKLNAEVVTEKDGEVIIRFKTPEQAERALKEAEKLGAEVEL [E31T] | 4.35
48 | EVIELKIKFKTPEQREKLKEIAKKLNAEVVEELDGEVIIRFKTPEQAERALKEAEKLGAEVEL [K33L] | 4.59
49 | EVIELKIKFKTPEQREKLKEIAKKLNAEVVEECDGEVIIRFKTPEQAERALKEAEKLGAEVEL [K33C] | 4.42
50 | EVIELKIKFKTPEQREKLKEIAKKLNAEVVEEYDGEVIIRFKTPEQAERALKEAEKLGAEVEL [K33Y] | 4.31
51 | EVIELKIKFKTPEQREKLKEIAKKLNAEVVEEGDGEVIIRFKTPEQAERALKEAEKLGAEVEL [K33G] | 4.36
52 | EVIELKIKFKTPEQREKLKEIAKKLNAEVVEEEDGEVIIRFKTPEQAERALKEAEKLGAEVEL [K33E] | 3.99
53 | EVIELKIKFKTPEQREKLKEIAKKLNAEVVEEQDGEVIIRFKTPEQAERALKEAEKLGAEVEL [K33Q] | 4.49
54 | EVIELKIKFKTPEQREKLKEIAKKLNAEVVEEPDGEVIIRFKTPEQAERALKEAEKLGAEVEL [K33P] | 4.27
55 | EVIELKIKFKTPEQREKLKEIAKKLNAEVVEEIDGEVIIRFKTPEQAERALKEAEKLGAEVEL [K33I] | 4.27
56 | EVIELKIKFKTPEQREKLKEIAKKLNAEVVEEVDGEVIIRFKTPEQAERALKEAEKLGAEVEL [K33V] | 4.35
57 | EVIELKIKFKTPEQREKLKEIAKKLNAEVVEEWDGEVIIRFKTPEQAERALKEAEKLGAEVEL [K33W] | 4.45
58 | EVIELKIKFKTPEQREKLKEIAKKLNAEVVEETDGEVIIRFKTPEQAERALKEAEKLGAEVEL [K33T] | 4.35
59 | EVIELKIKFKTPEQREKLKEIAKKLNAEVVEEADGEVIIRFKTPEQAERALKEAEKLGAEVEL [K33A] | 4.37
60 | EVIELKIKFKTPEQREKLKEIAKKLNAEVVEEHDGEVIIRFKTPEQAERALKEAEKLGAEVEL [K33H] | 4.45
61 | EVIELKIKFKTPEQREKLKEIAKKLNAEVVEEDDGEVIIRFKTPEQAERALKEAEKLGAEVEL [K33D] | 4.26
62 | EVIELKIKFKTPEQREKLKEIAKKLNAEVVEESDGEVIIRFKTPEQAERALKEAEKLGAEVEL [K33S] | 4.17
63 | EVIELKIKFKTPEQREKLKEIAKKLNAEVVEEMDGEVIIRFKTPEQAERALKEAEKLGAEVEL [K33M] | 4.39
64 | EVIELKIKFKTPEQREKLKEIAKKLNAEVVEEFDGEVIIRFKTPEQAERALKEAEKLGAEVEL [K33F] | 4.42
65 | EVIELKIKFKTPEQREKLKEIAKKLNAEVVEERDGEVIIRFKTPEQAERALKEAEKLGAEVEL [K33R] | 4.43
66 | EVIELKIKFKTPEQREKLKEIAKKLNAEVVEENDGEVIIRFKTPEQAERALKEAEKLGAEVEL [K33N] | 4.32

Row | Variant | folding stability dG [kcal/mol]
67 | EVIELKIKFKTPEQREKLKEIAKKLNAEVVEEKDWEVIIRFKTPEQAERALKEAEKLGAEVEL [G35W] | 4.46
68 | EVIELKIKFKTPEQREKLKEIAKKLNAEVVEEKDIEVIIRFKTPEQAERALKEAEKLGAEVEL [G35I] | 4.51
69 | EVIELKIKFKTPEQREKLKEIAKKLNAEVVEEKDAEVIIRFKTPEQAERALKEAEKLGAEVEL [G35A] | 4.5
70 | EVIELKIKFKTPEQREKLKEIAKKLNAEVVEEKDKEVIIRFKTPEQAERALKEAEKLGAEVEL [G35K] | 4.24
71 | EVIELKIKFKTPEQREKLKEIAKKLNAEVVEEKDVEVIIRFKTPEQAERALKEAEKLGAEVEL [G35V] | 4.35
72 | EVIELKIKFKTPEQREKLKEIAKKLNAEVVEEKDQEVIIRFKTPEQAERALKEAEKLGAEVEL [G35Q] | 4.25
73 | EVIELKIKFKTPEQREKLKEIAKKLNAEVVEEKDREVIIRFKTPEQAERALKEAEKLGAEVEL [G35R] | 4.42
74 | EVIELKIKFKTPEQREKLKEIAKKLNAEVVEEKDDEVIIRFKTPEQAERALKEAEKLGAEVEL [G35D] | 4.1
75 | EVIELKIKFKTPEQREKLKEIAKKLNAEVVEEKDNEVIIRFKTPEQAERALKEAEKLGAEVEL [G35N] | 4.33
76 | EVIELKIKFKTPEQREKLKEIAKKLNAEVVEEKDHEVIIRFKTPEQAERALKEAEKLGAEVEL [G35H] | 4.16
77 | EVIELKIKFKTPEQREKLKEIAKKLNAEVVEEKDSEVIIRFKTPEQAERALKEAEKLGAEVEL [G35S] | 4.48
78 | EVIELKIKFKTPEQREKLKEIAKKLNAEVVEEKDTEVIIRFKTPEQAERALKEAEKLGAEVEL [G35T] | 4.36
79 | EVIELKIKFKTPEQREKLKEIAKKLNAEVVEEKDCEVIIRFKTPEQAERALKEAEKLGAEVEL [G35C] | 4.48
80 | EVIELKIKFKTPEQREKLKEIAKKLNAEVVEEKDFEVIIRFKTPEQAERALKEAEKLGAEVEL [G35F] | 4.24
81 | EVIELKIKFKTPEQREKLKEIAKKLNAEVVEEKDLEVIIRFKTPEQAERALKEAEKLGAEVEL [G35L] | 4.32
82 | EVIELKIKFKTPEQREKLKEIAKKLNAEVVEEKDYEVIIRFKTPEQAERALKEAEKLGAEVEL [G35Y] | 4.18
83 | EVIELKIKFKTPEQREKLKEIAKKLNAEVVEEKDPEVIIRFKTPEQAERALKEAEKLGAEVEL [G35P] | 3.8
84 | EVIELKIKFKTPEQREKLKEIAKKLNAEVVEEKDMEVIIRFKTPEQAERALKEAEKLGAEVEL [G35M] | 4.26
85 | EVIELKIKFKTPEQREKLKEIAKKLNAEVVEEKDEEVIIRFKTPEQAERALKEAEKLGAEVEL [G35E] | 4.14

— the MegaScale stability set (Tsuboyama et al. 2023)
